The values that follow are results of earlier work, collected in article PMC9694239.

The series addresses CNG channel beta subunit CaM1 peptide CaM1 (Homo sapiens) (UniProt Q14028).

Chain of CNG channel beta subunit CaM1 peptide CaM1 (Homo sapiens) (Q14028 whole entry, looked up, tested part not stated): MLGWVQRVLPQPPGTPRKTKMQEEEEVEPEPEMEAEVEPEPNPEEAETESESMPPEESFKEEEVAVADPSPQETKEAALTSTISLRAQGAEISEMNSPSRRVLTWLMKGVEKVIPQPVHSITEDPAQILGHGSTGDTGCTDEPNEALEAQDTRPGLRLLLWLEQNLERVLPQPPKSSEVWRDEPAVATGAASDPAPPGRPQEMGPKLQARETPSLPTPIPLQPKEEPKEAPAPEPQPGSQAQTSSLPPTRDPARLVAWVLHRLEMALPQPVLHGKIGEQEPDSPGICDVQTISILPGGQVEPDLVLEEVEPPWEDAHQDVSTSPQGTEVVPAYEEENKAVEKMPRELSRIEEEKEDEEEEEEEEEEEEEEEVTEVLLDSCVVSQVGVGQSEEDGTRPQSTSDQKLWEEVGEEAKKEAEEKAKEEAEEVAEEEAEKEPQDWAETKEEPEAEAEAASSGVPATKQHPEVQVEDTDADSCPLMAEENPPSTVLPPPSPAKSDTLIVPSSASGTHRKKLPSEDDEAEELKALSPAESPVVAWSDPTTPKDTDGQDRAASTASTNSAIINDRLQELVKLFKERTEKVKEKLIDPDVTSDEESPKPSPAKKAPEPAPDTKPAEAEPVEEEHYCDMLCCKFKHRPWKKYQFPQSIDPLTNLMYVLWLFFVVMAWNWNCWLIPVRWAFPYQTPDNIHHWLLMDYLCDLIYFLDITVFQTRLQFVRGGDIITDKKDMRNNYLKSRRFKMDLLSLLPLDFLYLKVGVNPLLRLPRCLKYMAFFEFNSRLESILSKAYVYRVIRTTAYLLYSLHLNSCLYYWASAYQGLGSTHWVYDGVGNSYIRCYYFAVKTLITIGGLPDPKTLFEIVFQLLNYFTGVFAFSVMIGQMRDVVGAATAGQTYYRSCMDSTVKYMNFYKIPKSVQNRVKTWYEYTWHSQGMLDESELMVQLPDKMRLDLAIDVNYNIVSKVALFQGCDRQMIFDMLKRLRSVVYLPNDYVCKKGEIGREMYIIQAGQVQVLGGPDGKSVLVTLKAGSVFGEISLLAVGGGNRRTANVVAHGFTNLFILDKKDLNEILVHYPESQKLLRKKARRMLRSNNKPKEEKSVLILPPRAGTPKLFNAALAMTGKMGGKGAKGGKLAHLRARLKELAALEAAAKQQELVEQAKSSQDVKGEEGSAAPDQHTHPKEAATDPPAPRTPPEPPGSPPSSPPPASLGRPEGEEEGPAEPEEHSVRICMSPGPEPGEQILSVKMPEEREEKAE

Consider Calmodulin N-lobe (from UniProt P0DP23), for which the Kd was 5 µM.
